According to the supplement of paper PMC11502859:

Tested on: HEK293T
Assay: median enrichment of reporter reads in eGFP-reduced (low/intermediate) vs eGFP-high sorted cells (eGFP-extension fusion abundance) (ratio); higher = stronger loss of eGFP-fusion protein abundance (more destabilising extension)
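Further: lentiviral eGFP-IRES-mCherry reporter pool sorted by FACS 96 h post-transduction, gated on mCherry-high cells, Illumina read counts normalized per million, median across four biological replicates.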

| Substance | median enrichment |
| --- | --- |
| GHSPLLVPH [TP53] | 0.449 |
| GIIIISTCPQFLSQSPSILTCTHSDAD [TCHHL1] | 3.49 |
| GISVSSLISGIFVDKIRRNSCNF [KATNAL1] | 2.39 |
| GKSPVSQHRGAALHTCGETFPAGPRESDSKNNRCCFSRVM [HABP4] | 8.99 |
| GLKFCKVLRGPEHVSATRGSGQHCVLRLVSYLRLPSICVQRPRLQPSQHSAGSHAPCPHPGQQTPARVCAPSDCTPALITHRH [SLC29A4] | 5.42 |
| GLLPVDEVSFL [ABCC5] | 0.739 |
| GLPPWSLNPAPTSCLFS [PRDM10] | 5.78 |
| GLPS [TMEM107] | 0.716 |
| GMSFLDLH [LSM5] | 0.489 |
| GMSVVSCLQTPSPAQFI [SAMHD1] | 1.45 |
| GNHGARAARCVQRRAHRHHPHPDQPAYRGARAPLPEAAQGHQR [UCKL1] | 0.821 |
| GNWD [PIK3C3] | 0.441 |
| GPPSTSQQQD [DENND5A] | 0.577 |
| GPWDTAFSFARLSACRPGGEPGPANESLVYLGCNSLKVQSFGLQSCPGPGSPGHCCSPRPWALVFLQHHTCCPFSISVCVKGD [MYO1F] | 5.6 |
| GQRQRVLPKPLLPLWMLSLTLTHHCASLQTPRAQDWARPRDSHPFPSWEELACLATDSVSSNWLKWALPRVQLCGFYHA [IQGAP3] | 15.7 |
| GRCSDASAGAGTPNPWLQNRDPHPDRGSSAFEGFQAGLCGTEAQRGPGTWQRWGREEIQLPSLLPLLLQVPSNQELYILLVPQ [CCDC86] | 5.26 |
| GRGMASGREGGIVGGQGSGFGSRWEQGLVKLFVSGPQ [PAQR7] | 12.5 |
| GRNQQSTSAGQQPREPLPTRIAGSVTEQAG [ETV6] | 4.01 |
| GRRADSLAAPVLSPAILPYQGHWPLPSLCEGYFL [CYP2C18] | 17 |

| Substance | median enrichment |
| --- | --- |
| GRRWCFRTLSHSLPSSALCHSQPFQQPRQPLLRPFPQPDTHSH [AMOTL2] | 12.3 |
| GRTRRFNRASVVSPVGLQKSGAFAICLK | 10.9 |
| GSGLCLVLSLPGRCSTPYRGGQLRAWAASSWTQLSRSSCSAQGGHMSEPRSWTSTQEDASEGKEIFYGLRPECQY [KLRG2] | 7.23 |
| GSGP [LCE1D] | 0.314 |
| GSPLCLGLLLPREFSPLTYPHLSGLTGRNHCTTERGWDGPASCLWEKTSCLGRGLCLVKVPTGNP [ITGAX] | 5.38 |
| GSRGRGGESPPRPPLPSPPGSRGSGLGRLPIPLLQAALIPHRN [FBXO46] | 5.21 |
| GSSC [KRTAP13-1] | 0.297 |
| GSSTETGASSSSLGCGPSSRTRTSATSRASWRAWASARAASSLTASAASSAA [CCM2L] | 13.6 |
| GSVQGFLGPSCLS [KCNA10] | 0.463 |
| GSYISPSIRGHTQESNFALLQALVEAA [ZNF337] | 9.72 |
| GTHNLHLSGYYYRFLHAQSRRIWTQMVTITSWPTNKKVLTML [ZNF717] | 7.8 |
| GTLTV [ABCB1] | 0.767 |
| GTQSSLLAVDFPLLLEPPIKEIQRDSCRPEAEHTFMAGALRGVLDPAPGDTIHFYCFVVTRALQPVFLKNQGPLPPPLPWGET [PLOD1] | 6.78 |
| GTSLALLTHPRNTISGTRAAPRTRGYSRHNLIERAPAALTSTAFDTYASLVLLLSSESSCAHAFSRMGSPLAVAASVLALASS [KIAA1522] | 6.48 |
| GTSPAPLRTPPRLDGWAHASHWGPGSRRWAPTLGPRGAANHTGLRPSYPAPSPSTSTFTSPPFHFFLYVFFLLETDSIHIEYN [JUNB] | 4.58 |
| GVFDS [DDX50] | 0.357 |
| GVPAHSCGKGGEGRRARPEQGAGGRAQYLTRAAVLINVPMAGPRSEPASSATVTFSLRDGGGGSLSRWLSRPRSRPWVLSQLG [DUSP9] | 4.83 |
| GVPGHSGLVQTPLL [PAF1] | 0.255 |
| GVSGGEERRADLGRALRTWPRARDSPGSSSPWQAQQHVPQIWKGLPLCQCLGGCHGCPHPLLSVCGVEEPTPASCQDHLGGHT [GPRC5C] | 1.27 |

| Substance | median enrichment |
| --- | --- |
| GVWLSHGIPGKGLTQ [PTPA] | 2.08 |
| GWGLQGRGLAPFSLSY [NR1H4] | 13.8 |
| GWLPRPGRLLDILFWLNIVLWMVPQSGARILPRRKATNGSGNYIKPETLQQGENCAPGCLAQASLEPSKHFCPS [MAB21L3] | 7.37 |
| GWVRISTTFLDTVK [HBS1L] | 11.5 |
| GYSHPGTEKAADGDCLPQPQQHLGLQLLESYHPRRQAQPGRGEEWAVKMKPHAQSPPIPHAAPPQSQATSCLLLVGGGLLSPS [LGALS9] | 3.94 |
| HFWGVTDFVHGFKVYFYGLVIAEFLFWGEGKGASPLLLALRPRRLLCAANCIYCDALVRAPLPTSPSQLWPQPLSLCCVEWTP [TSPYL2] | 8.4 |
| HHH [His03] | 0.477 |
| HHHH [His04] | 0.323 |
| HHHHH [His05] | 0.675 |
| HHHHHH [His06] | 0.337 |
| HHHHHHH [His07] | 0.367 |
| HHHHHHHH [His08] | 0.421 |
| HHHHHHHHH [His09] | 0.435 |
| HHHHHHHHHH [His10] | 0.464 |
| HLPIPASLARALLGPEQRRTCPTHTAIYSSRHRAPLPYSWSQQPGNGVALHWPLASTLSGAPAVGWGTPAKDQFGCLIPGAVT [CRHR2] | 3.84 |
| HTTGQGCGAGAIPAPFPGPRGLGSLPSHPGLVPPGAPTVEIRRGWNGGRGGAGGPHPSAALGLGPHPSGGPEAGGGNPRGWLF [GNB2] | 0.37 |
| III [Ile03] | 3.74 |
| IIII [Ile04] | 11.9 |
| IIIII [Ile05] | 8.97 |
